In article PMC12102759 (2025):

B1: MXI1 peptide 6-21 (Max-interacting protein 1), 16-mer library wild type / SIN3A PAH2 (SIN3A PAH domain, residues 295-383) (parent complex)
chain 1: MINVQRLLEAAEFLER
chain 2: SLQNNQPVEFNHAINYVNKIKNRFQGQPDIYKAFLEILHTYQKEQRNAKEAGGNYTPALTEQEVYAQVARLFKNQEDLLSEFGQFLPDA

Variants of: B1
Test: proteomic peptide phage display deep mutational scan (ProP-PD DMS): M13 P8 16-mer library selected against immobilised GST-tagged bait for four days (rounds), NGS of the eluted pools per day and pseudo-replica; bait immobilised on MaxiSorp plates (10 µg), library pre-cleared on GST, 2 h binding at 4 °C, five washes; one round per day, days 1-4; value from days 2 and 3

| Variant | screen value |
| --- | --- |
| chain 1 MINVQRLLEAAHFLER [chain 1 E12H] | 0.00554 average fractional NGS count over selection days 2 and 3 (reads of this peptide / all reads for the bait, averaged over … |
| chain 1 MINVQRLLEAAIFLER [chain 1 E12I] | 0.000347 average fractional NGS count over selection days 2 and 3 (reads of this peptide / all reads for the bait, averaged over … |
| chain 1 MINVQRLLEAATFLER [chain 1 E12T] | 0.000504 average fractional NGS count over selection days 2 and 3 (reads of this peptide / all reads for the bait, averaged over … |
| chain 1 MINVQRLLEWAEFLER [chain 1 A10W] | 0.000448 average fractional NGS count over selection days 2 and 3 (reads of this peptide / all reads for the bait, averaged over … |
| chain 1 MINVQRLQEAAEFLER [chain 1 L8Q] | 0.000344 average fractional NGS count over selection days 2 and 3 (reads of this peptide / all reads for the bait, averaged over … |
| chain 1 MINVQRLVEAAEFLER [chain 1 L8V] | 0.000127 average fractional NGS count over selection days 2 and 3 (reads of this peptide / all reads for the bait, averaged over … |
| chain 1 MINVQRLGEAAEFLER [chain 1 L8G] | 0.000132 average fractional NGS count over selection days 2 and 3 (reads of this peptide / all reads for the bait, averaged over … |
| chain 1 MINVQRLHEAAEFLER [chain 1 L8H] | 0.000323 average fractional NGS count over selection days 2 and 3 (reads of this peptide / all reads for the bait, averaged over … |
| chain 1 MINVQRLTEAAEFLER [chain 1 L8T] | 0.000156 average fractional NGS count over selection days 2 and 3 (reads of this peptide / all reads for the bait, averaged over … |
| chain 1 MINIQRLLEAAEFLER [chain 1 V4I] | 0.000288 average fractional NGS count over selection days 2 and 3 (reads of this peptide / all reads for the bait, averaged over … |
| chain 1 MINNQRLLEAAEFLER [chain 1 V4N] | 0.000273 average fractional NGS count over selection days 2 and 3 (reads of this peptide / all reads for the bait, averaged over … |
| chain 1 MINVQALLEAAEFLER [chain 1 R6A] | 0.00198 average fractional NGS count over selection days 2 and 3 (reads of this peptide / all reads for the bait, averaged over … |
| chain 1 MINVQGLLEAAEFLER [chain 1 R6G] | 0.000834 average fractional NGS count over selection days 2 and 3 (reads of this peptide / all reads for the bait, averaged over … |
| chain 1 MINVQRWLEAAEFLER [chain 1 L7W] | 0.00101 average fractional NGS count over selection days 2 and 3 (reads of this peptide / all reads for the bait, averaged over … |
| chain 1 MINVQRYLEAAEFLER [chain 1 L7Y] | 0.00109 average fractional NGS count over selection days 2 and 3 (reads of this peptide / all reads for the bait, averaged over … |
| chain 1 MINVQRLLEAHEFLER [chain 1 A11H] | 0.000274 average fractional NGS count over selection days 2 and 3 (reads of this peptide / all reads for the bait, averaged over … |
| chain 1 MINVQRLLEAGEFLER [chain 1 A11G] | 0.000249 average fractional NGS count over selection days 2 and 3 (reads of this peptide / all reads for the bait, averaged over … |
| chain 1 MINVQRLLEAWEFLER [chain 1 A11W] | 0.00145 average fractional NGS count over selection days 2 and 3 (reads of this peptide / all reads for the bait, averaged over … |
| chain 1 MINVQRLLEAQEFLER [chain 1 A11Q] | 0.000778 average fractional NGS count over selection days 2 and 3 (reads of this peptide / all reads for the bait, averaged over … |

| Variant | screen value |
| --- | --- |
| chain 1 MINVQRLLEAEEFLER [chain 1 A11E] | 0.000155 average fractional NGS count over selection days 2 and 3 (reads of this peptide / all reads for the bait, averaged over … |
| chain 1 MIKVQRLLEAAEFLER [chain 1 N3K] | 0.000249 average fractional NGS count over selection days 2 and 3 (reads of this peptide / all reads for the bait, averaged over … |
| chain 1 MIVVQRLLEAAEFLER [chain 1 N3V] | 0.000212 average fractional NGS count over selection days 2 and 3 (reads of this peptide / all reads for the bait, averaged over … |
| chain 1 MINVQRLLEAAEFLMR [chain 1 E15M] | 8.82e-05 average fractional NGS count over selection days 2 and 3 (reads of this peptide / all reads for the bait, averaged over … |
| chain 1 MINVQRLLEAAEFLQR [chain 1 E15Q] | 0.000842 average fractional NGS count over selection days 2 and 3 (reads of this peptide / all reads for the bait, averaged over … |
| chain 1 MINVQRLLEAAEFLNR [chain 1 E15N] | 0.000504 average fractional NGS count over selection days 2 and 3 (reads of this peptide / all reads for the bait, averaged over … |
| chain 1 MINVQRLLEAAEFLKR [chain 1 E15K] | 0.000258 average fractional NGS count over selection days 2 and 3 (reads of this peptide / all reads for the bait, averaged over … |
| chain 1 MINVQRLLEAAEFLPR [chain 1 E15P] | 0.000251 average fractional NGS count over selection days 2 and 3 (reads of this peptide / all reads for the bait, averaged over … |
| chain 1 MINVQRLLEAAEFLHR [chain 1 E15H] | 0.00272 average fractional NGS count over selection days 2 and 3 (reads of this peptide / all reads for the bait, averaged over … |
| chain 1 MINVQRLLIAAEFLER [chain 1 E9I] | 0.000125 average fractional NGS count over selection days 2 and 3 (reads of this peptide / all reads for the bait, averaged over … |
| chain 1 MINVQRLLSAAEFLER [chain 1 E9S] | 0.0016 average fractional NGS count over selection days 2 and 3 (reads of this peptide / all reads for the bait, averaged over … |
| chain 1 MINVQRLLFAAEFLER [chain 1 E9F] | 0.000875 average fractional NGS count over selection days 2 and 3 (reads of this peptide / all reads for the bait, averaged over … |
| chain 1 MINVQRLLGAAEFLER [chain 1 E9G] | 0.000184 average fractional NGS count over selection days 2 and 3 (reads of this peptide / all reads for the bait, averaged over … |
| chain 1 MINVQRLLMAAEFLER [chain 1 E9M] | 0.000348 average fractional NGS count over selection days 2 and 3 (reads of this peptide / all reads for the bait, averaged over … |
| chain 1 MINVSRLLEAAEFLER [chain 1 Q5S] | 0.000556 average fractional NGS count over selection days 2 and 3 (reads of this peptide / all reads for the bait, averaged over … |
| chain 1 MINVFRLLEAAEFLER [chain 1 Q5F] | 0.000275 average fractional NGS count over selection days 2 and 3 (reads of this peptide / all reads for the bait, averaged over … |
| chain 1 MINVARLLEAAEFLER [chain 1 Q5A] | 0.000986 average fractional NGS count over selection days 2 and 3 (reads of this peptide / all reads for the bait, averaged over … |
| chain 1 MINVYRLLEAAEFLER [chain 1 Q5Y] | 0.00574 average fractional NGS count over selection days 2 and 3 (reads of this peptide / all reads for the bait, averaged over … |
| chain 1 MENVQRLLEAAEFLER [chain 1 I2E] | 0.00021 average fractional NGS count over selection days 2 and 3 (reads of this peptide / all reads for the bait, averaged over … |

| Variant | screen value |
| --- | --- |
| chain 1 MSNVQRLLEAAEFLER [chain 1 I2S] | 0.000713 average fractional NGS count over selection days 2 and 3 (reads of this peptide / all reads for the bait, averaged over … |
| chain 1 MLNVQRLLEAAEFLER [chain 1 I2L] | 0.000364 average fractional NGS count over selection days 2 and 3 (reads of this peptide / all reads for the bait, averaged over … |
| chain 1 MPNVQRLLEAAEFLER [chain 1 I2P] | 0.000427 average fractional NGS count over selection days 2 and 3 (reads of this peptide / all reads for the bait, averaged over … |
| chain 1 MINVQRLLEAAEFHER [chain 1 L14H] | 0.00159 average fractional NGS count over selection days 2 and 3 (reads of this peptide / all reads for the bait, averaged over … |
| chain 1 MINVQRLLEAAEFYER [chain 1 L14Y] | 0.00247 average fractional NGS count over selection days 2 and 3 (reads of this peptide / all reads for the bait, averaged over … |
| chain 1 MINVQRLLEAAEFWER [chain 1 L14W] | 0.000239 average fractional NGS count over selection days 2 and 3 (reads of this peptide / all reads for the bait, averaged over … |
| chain 1 MINVQRLLEAAEFMER [chain 1 L14M] | 0.000829 average fractional NGS count over selection days 2 and 3 (reads of this peptide / all reads for the bait, averaged over … |
| chain 1 MINVQRLLEAAELLER [chain 1 F13L] | 0.00028 average fractional NGS count over selection days 2 and 3 (reads of this peptide / all reads for the bait, averaged over … |
| chain 1 MINVQRLLEAAEVLER [chain 1 F13V] | 0.000201 average fractional NGS count over selection days 2 and 3 (reads of this peptide / all reads for the bait, averaged over … |
| chain 1 MINVQRLLEAAEWLER [chain 1 F13W] | 0.00114 average fractional NGS count over selection days 2 and 3 (reads of this peptide / all reads for the bait, averaged over … |
| chain 1 MINVQRLLEAAERLER [chain 1 F13R] | 0.00192 average fractional NGS count over selection days 2 and 3 (reads of this peptide / all reads for the bait, averaged over … |
| chain 1 MINVQRLLEAAEYLER [chain 1 F13Y] | 0.00195 average fractional NGS count over selection days 2 and 3 (reads of this peptide / all reads for the bait, averaged over … |
| chain 1 MINVQRLLEAAEGLER [chain 1 F13G] | 0.00169 average fractional NGS count over selection days 2 and 3 (reads of this peptide / all reads for the bait, averaged over … |
| chain 1 MINVQRLLEAAEQLER [chain 1 F13Q] | 0.00155 average fractional NGS count over selection days 2 and 3 (reads of this peptide / all reads for the bait, averaged over … |
| chain 1 YINVQRLLEAAEFLER [chain 1 M1Y] | 0.000304 average fractional NGS count over selection days 2 and 3 (reads of this peptide / all reads for the bait, averaged over … |
| chain 1 PINVQRLLEAAEFLER [chain 1 M1P] | 0.000146 average fractional NGS count over selection days 2 and 3 (reads of this peptide / all reads for the bait, averaged over … |
| chain 1 FINVQRLLEAAEFLER [chain 1 M1F] | 0.000314 average fractional NGS count over selection days 2 and 3 (reads of this peptide / all reads for the bait, averaged over … |
| chain 1 DINVQRLLEAAEFLER [chain 1 M1D] | 9.92e-05 average fractional NGS count over selection days 2 and 3 (reads of this peptide / all reads for the bait, averaged over … |
